# From US7256321B2, “Intracellular modulators of apoptopic cell death pathways” (Applied Research Systems ARS Holding N.V., priority 1997, dated 2007)
# B1: GILR: Glucocorticoid Induced Leucine-zipper family Related protein, 137 amino acids (mouse), overexpressed from GILR cDNA in pcDNA3 (protein)
# chain: MNTEMYQTPMEVAVYQLHNFSTSFFSSLLGGDVVSVKLDNSASGASVVALDNKIEQAMDLVKNHLMYAVREEVEVLKEQIRELLEKNSQLERENTLLKTLASPEQLEKFQSRLSPEEPAPEAPETPETPEAPGGSAV
# Assays:
# Format in all cases: cell-based, mouse
# 3DO transfected clones [1] = assay: Anti-CD3-induced apoptosis of 3DO transfected clones (propidium iodide flow cytometry); details: GILR expression in transfected 3DO clones
# Procedure: Thymocytes were obtained from 3 to 5-week-old C3H/HeN mice purchased from Charles River (Milan, Italy). The cell suspensions were washed, filtered and adjusted to a concentration of 8×10^6 cells/ml in complete medium. The cells were incubated at 37° C. alone or with 100 nM/l DEX (Sigma, St. Louis, Mo.) for 3 hrs. A CD3+, CD4+, CD2+, CD44+ sub-line obtained in our laboratory of the OVA-specific mouse hybridoma T cell line (3DO; Ayroldi et al., 1995) maintained in suspension in RPMI 1640 medium supplemented with 10% FCS and […] HEPES buffer was used for transfection experiments. […]
# The GILR cDNA coding sequence (874 bp—see FIG. 2) was cloned into a pcDNA3 plasmid (Invitrogen) for expression in mammalian cells. […] These surviving cells were considered clones and analyzed in an RNase protection assay for the expression of exogenous GILR (Vito et al., 1996). […]
# Apoptosis was measured by flow cytometry as described elsewhere (Nicoletti et al., 1991). […] The PI-fluorescence of individual nuclei was measured by flow cytometry using standard FACScan equipment (Becton Dickinson). […] A 560 nm dichroid mirror (DM 570) and a 600 nm band pass filter (band width 35 nm) were used to collect the red fluorescence due to PI DNA staining. The data were recorded in logarithmic scale in a Hewlett Packard (HP 9000, model 310; Palo Alto, Calif.) computer. […]
# IL-2R = IL-2R (CD25) expression on 3DO transfected clones (flow cytometry); details: overexpression of GILR in transfected 3DO clones
# Procedure: For that purpose, GILR transfected clones were activated and analyzed for apoptosis and expression of activation markers, like the interleukin-2 receptor (IL-2R). In particular, after stimulation with cross-linked anti-CD3 monoclonal antibodies (1 μg/ml), GILR-transfected and empty vector clones (used as control) were stained with anti-IL-2R monoclonal antibody (CD25) or treated for propidium iodide labeling for apoptosis evaluation. The supernatants from control and anti-CD3-treated clones were used for IL-2 detection in an ELISA assay.
# [2] = tested on: Fas/Fas-L expression on 3DO transfected clones; assay: Fas and Fas-L expression on 3DO transfected clones (flow cytometry); details: GILR expression in transfected 3DO clones
# Procedure: Hamster anti-mouse CD3ε (clone 145-2C11; Pharmingen, San Diego, Calif.) mAb at 1 μg/well (=1 μg/ml of anti-CD3 antibody) was allowed to adhere to flat-bottomed, high-binding 96-well plates (Costar, Cambridge, Mass.) at 4° C. in 100 μl PBS. After 20 hours, plates coated with mAb were washed and transfected clones were plated at 1×10^5 cells/well and incubated at 37° C. for 20 hours. Isotype-matched rat anti-mouse IgG 2b mAbs (clone R 35-38, Pharmingen) were used a control.
# A single suspension (1×10^6cells/sample) was incubated for 30 minutes on ice in 50 μl staining buffer (PBS plus 5% FCS), containing 10 μg/ml hamster anti-mouse Fas mAb directly conjugated to R-phycoerythrin (PE) or PE-hamster IgG (isotype control).
# Both mAbs were purchased from Pharmingen. Cells were also stained with rabbit polyclonal antibody raised against a peptide corresponding to amino acids 260-279 mapping at the carboxy terminus of human Fas-L (Santa Cruz Biotechnology, Inc., Santa Cruz, Calif.) or with isotype-matched antibody (ab), and with anti-rabbit IgG FITC conjugate, F(ab′)2 fragment (Sigma), as a second step reagent.
# All clones were stained with hamster anti-mouse αCD3, directly conjugated with fluorescein (Pharmingen). The median or percentage of Fas and Fas-L histograms was calculated using lysis II research software (Becton-Dickinson, Mountain View, U.S.A.).
# 3DO transfected clones [3] = assay: Apoptosis induced by other stimuli on 3DO transfected clones; details: GILR overexpression in 3DO clones GILR/1,5,7 vs pcDNA3/4,7,8, 20 hours
# Procedure: FIGS. 7A-7D are bar-graph representations of the results of the analysis of apoptosis induced by other stimuli on 3DO transfected clones, wherein in FIG. 7A is shown the results obtained with withdrawn trophic factor; in FIG. 7B is shown the results obtained with u.v. irradiation (100 J/m2); in FIG. 7C is shown the results obtained with DEX ([…]); and in FIG. 7D is shown the results obtained with monoclonal (mAb) anti-Fas antibody (5 μg/ml). All groups were treated for 20 hours. Cell death was measured as indicated above with respect to FIG. 6, and as noted herein below. […]
# Aliquots of2 ml transfected clones (1×10^6/ml) were incubated with DEX or subjected to deprivation conditions (1% FCS). The apoptosis was evaluated after 20 hours as described below.
# Apoptosis was measured by flow cytometry as described elsewhere (Nicoletti et al., 1991). […] The PI-fluorescence of individual nuclei was measured by flow cytometry using standard FACScan equipment (Becton Dickinson). […] A 560 nm dichroid mirror (DM 570) and a 600 nm band pass filter (band width 35 nm) were used to collect the red fluorescence due to PI DNA staining. The data were recorded in logarithmic scale in a Hewlett Packard (HP 9000, model 310; Palo Alto, Calif.) computer. The percentage of apoptotic cell nuclei (sub-diploid DNA peak in the DNA fluorescence histogram) was calculated with specific FACScan research software (Lysis II).
molecule,measurement,setting,value
B1,TCR/CD3-activated apoptosis,3DO transfected clones [1],inhibits
same,"anti-CD3 induced activation (IL-2R, IL-2)",IL-2R,inhibits
same,Fas/Fas-L expression,[2],inhibits
same,"apoptosis induced by DEX, UV irradiation, starvation or crosslinked anti-Fas monoclonal antibody",3DO transfected clones [3],does not counteract
